Source: patent US20130244255A1 (published 2013)

Key:
[1] = target: T1, GPNMB (CG56972) as expressed by human cell lines (human, UniProt Q14956 23-492); experiment: FACS on SUP-M2 cells, antibody 1 ug/mL
T1 construct: Endogenous or transfected full-length protein on cells (FACS, killing assays) or in cell lysates (immunoprecipitation, blot); also called native GPNMB protein
T1 sequence: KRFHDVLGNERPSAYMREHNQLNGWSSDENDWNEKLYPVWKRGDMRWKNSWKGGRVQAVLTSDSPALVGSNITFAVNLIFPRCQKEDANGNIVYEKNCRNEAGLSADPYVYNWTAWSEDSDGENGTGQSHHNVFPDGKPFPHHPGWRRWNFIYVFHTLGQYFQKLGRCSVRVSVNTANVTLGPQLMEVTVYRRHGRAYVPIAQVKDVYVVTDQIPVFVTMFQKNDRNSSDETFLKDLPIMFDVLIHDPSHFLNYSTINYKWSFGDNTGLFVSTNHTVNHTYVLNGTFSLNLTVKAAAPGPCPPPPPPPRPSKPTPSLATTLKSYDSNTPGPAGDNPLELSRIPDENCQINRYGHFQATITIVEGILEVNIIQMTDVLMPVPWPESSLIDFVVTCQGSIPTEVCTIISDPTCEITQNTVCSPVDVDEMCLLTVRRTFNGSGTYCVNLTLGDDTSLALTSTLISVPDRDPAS
Experimental: (§1) Lymphoma or leukemia derived cells were washed twice with ice-cold FACS buffer and resuspended at 1 million cells per assay tube. […] Cells were then washed 2-3 times and resuspended in 1 mL of ice-cold FACS buffer. R-PE-conjugated goat anti-human antibody at 1:100 dilution was added and cells were incubated on ice for 30 min. Cells were washed 3 times with 1 mL of ice-cold FACS buffer, fixed with 0.5-1 mL of 1% formaldehyde in PBS and analyzed by Flow Cytometry.

[2] = target: T1, GPNMB (CG56972) as expressed by human …; experiment: FACS on MV4-11 cells, antibody 1 ug/mL
[3] = target: T1, GPNMB (CG56972) as expressed by human …; experiment: FACS on HH cells, antibody 1 ug/mL
[4] = target: T1, GPNMB (CG56972) as expressed by human …; experiment: FACS on U937 cells, antibody 1 ug/mL
Experimental: as §1

[5] = target: T1, GPNMB (CG56972) as expressed by human …; experiment: FACS on UACC-257 cells
[6] = target: T1, GPNMB (CG56972) as expressed by human …; experiment: FACS on UACC-62 cells, antibody 1 ug/mL
Experimental: The specificity of anti-GPNMB antibodies to cell membrane-bound GPNMB protein expressed by melanoma cancer cell line, UACC-62 was analyzed by FACS analysis. […] Cells were washed twice with PBS (Ca and Mg free), incubated with Versene at 37° C. until cells detached, counted and aliquoted at 1 million cells per assay tube. Cells were then washed twice and resuspended in ice-cold FACS buffer (0.01 M HEPES, 0.15M NaCl, 0.1% NaN₃ and 4% FBS). Primary antibody at 1 μg/mL was added to the cells. Cells were incubated on ice for 30 min, washed 2-3 times and resuspended in 1 mL of ice-cold FACS buffer. R-PE-conjugated goat anti-human antibody (Jackson ImmunoResearch Laboratory) at 1:100 dilution was added and cells were incubated on ice for 30 min. After washing 3 times with 1 mL of ice-cold FACS buffer, cells were fixed with 0.5-1 mL of 1% formaldehyde in PBS and analyzed by flow cytometry.

[7] = target: T1, GPNMB (CG56972) as expressed by human …; experiment: FACS on KG1a cells, antibody 1 ug/mL
Experimental: as §1

[8] = target: T1, GPNMB (CG56972) as expressed by human …; experiment: FACS on SF-295 cells, CR011 10 ug/mL
Experimental: Quantitative analysis of CG56972 expression on the surface of cell lines was determined by flow cytometry (FACS). […] Cells were fixed in 1% paraformaldehyde/PBS and examined on a Becton Dickinson FACSCalibur flow cytometer. Data analysis was performed with Becton Dickinson Cell Quest software version 3.3 and the geometric mean fluorescence intensity ratio (GMR) was determined for each cell type.

[9] = target: T1, GPNMB (CG56972) as expressed by human …; experiment: FACS on G361 cells

B1: CR011 mAb 1.15.1 (IgG2) (antibody)
heavy: QVQLQESGPGLVKPSQTLSLTCTVSGGSISSFNYYWSWIRHHPGKGLEWIGYIYYSGSTYSNPSLKSRVTISVDTSKNQFSLTLSSVTAADTAVYYCARGYNWNYFDYWGQGTLVTVSSASTKGPSVFPLAPCSRSTSESTAALGCLVKDYFPEPVTVSWNSGALTSGVHTFPAVLQSSGLYSLSSVVTVPSSNFGTQTYTCNVDHKPSNTKVDKTVERKCCVECPPCPAPPVAGPSVFLFPPKPKDTLMISRTPEVTCVVVDVSHEDPEVQFNWYVDGVEVHNAKTKPREEQFNSTFRVVSVLTVVHQDWLNGKEYKCKVSNKGLPAPIEKTISKTKGQPREPQVYTLPPSREEMTKNQVSLTCLVKGFYPSDIAVEWESNGQPENNYKTTPPMLDSDGSFFLYSKLTVDKSRWQQGNVFSCSVMHEALHNHYTQKSLSLSPGK
VL: not shown
notes: also called CR011.1.15.1; CR011 IgG2
[1]
  Geo Mean Ratio: 4.8 ratio
[2]
  Geo Mean Ratio: 1.9 ratio
[3]
  Geo Mean Ratio: 1 ratio
[4]
  Geo Mean Ratio: 17.3 ratio
[5]
  Geo Mean Ratio (relative to isotype): 7 ratio
[6]
  Geo Mean Ratio (relative to pK16): 7.89 ratio
[7]
  Geo Mean Ratio: 2.7 ratio
[8]
  CR011 Fold Shift (GMR): 1.8 fold
[9]
  Geo Mean Ratio (relative to isotype): 8 ratio
